Measured values reported in patent US20130115627A1 (AGENCY FOR SCIENCE TECHNOLOGY AND RESEARCH, published 2013).

Target: T1, PODXL on the surface of hESCs (human, UniProt O00592 23-558, glycosylated (sites not given))
T1 construct: also called human embryonic stem cells
T1 sequence: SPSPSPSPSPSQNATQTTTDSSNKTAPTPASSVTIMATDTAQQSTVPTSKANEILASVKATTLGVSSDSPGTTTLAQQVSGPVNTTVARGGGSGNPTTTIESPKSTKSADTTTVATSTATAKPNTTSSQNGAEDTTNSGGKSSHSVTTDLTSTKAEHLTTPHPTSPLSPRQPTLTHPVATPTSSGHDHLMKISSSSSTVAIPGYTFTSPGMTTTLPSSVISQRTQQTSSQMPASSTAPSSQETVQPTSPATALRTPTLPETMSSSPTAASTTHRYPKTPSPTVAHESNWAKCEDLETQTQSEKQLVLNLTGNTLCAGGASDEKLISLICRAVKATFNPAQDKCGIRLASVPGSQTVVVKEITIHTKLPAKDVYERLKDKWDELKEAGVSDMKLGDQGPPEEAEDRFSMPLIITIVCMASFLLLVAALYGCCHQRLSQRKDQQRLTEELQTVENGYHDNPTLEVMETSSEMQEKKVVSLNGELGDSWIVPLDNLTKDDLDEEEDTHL
Assay: kinetics of binding to PODXL on the surface of hESCs; method not stated

B1: mAb 84 (antibody, V domains shown)
VH: QVQLQQSGGGLVQPGGSMKLSCVASGFTFSNYWMNWVRQSPEKGLEWVAEIRLKSNNYATHYAESVKGRFTISRDDSKSSVYLQMNNLRAEDTGIYYCTGERAWGQGTTVTVSS
VL: DIELTQSPAIMSASPGEKVTMTCSASSSVNYMYWYQQKPGSSPRLLIYDTSNLASGVPVRFSGSGSGTSYSLTISRMEAEDAATYYCQQWSSYPYTFGGGTKLEIKR
Question: B1 was tested. Which Kd did it give?
Answer: 40 nM

Question: What about the koff of the same binder?
Answer: 0.0029 s⁻¹

Question: What about the kon of the same binder?
Answer: 71000 M⁻¹ s⁻¹
